{"source": "patent US20060269543A1", "about": "(Amgen, published 2006)"}
{"molecular_target": "T1, IFN-γ (human, UniProt P01579 24-166, limits assumed)", "T1 sequence (looked up)": "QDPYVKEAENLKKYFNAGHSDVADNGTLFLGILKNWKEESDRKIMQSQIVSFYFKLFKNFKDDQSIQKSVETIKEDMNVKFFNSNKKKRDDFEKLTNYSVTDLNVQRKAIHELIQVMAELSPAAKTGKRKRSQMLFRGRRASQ", "experiment": "cell-based or functional assay", "units": {"IC50, A549 cell proliferation assay (ALAMARBLUE); sample stored 3 months at pH 5, 4° C.": "µg/mL", "IC50, A549 cell proliferation assay (ALAMARBLUE); sample stored 3 months at pH 5, 37° C.": "µg/mL"}}
{"binder": "full length human IgG1 antibody against human IFN-γ, filtered purified bulk (FPB) (antibody, V domains shown, N-glycan sites at amino acids 28 and 297 of SEQ ID NO:17 (VH and CH2); heterogeneously sialylated) VH: EVQLVQSGAEVKKPGESLKISCKGSGYNFTSYWIGWVRQMPGKGLELMGIIYPGDSDTRYSPSFQGQVTISADKSISTAYLQWSSLKASDTAMYYCGSGSYFYFDLWGRGTLVTVSS VL: EIVLTQSPGTLSLSPGERATLSCRASQSVSSSYLAWYQQKPGQAPRLLIYGASSRATGIPDRFSGSGSGTDFTLTISRLEPEDFAVYYCQRSGGSSFTFGPGTKVDIKR", "IC50, A549 cell proliferation assay (ALAMARBLUE); sample stored 3 months at pH 5, 4° C.": 0.0023, "IC50, A549 cell proliferation assay (ALAMARBLUE); sample stored 3 months at pH 5, 37° C.": 0.0027}
{"binder": "full length human IgG1 antibody against human IFN-γ, purified isoform Peak -2 (antibody, V domains shown, N-glycan sites at amino acids 28 and 297 of SEQ ID NO:17 (VH and CH2); sialylation isoform Peak -2) VH: EVQLVQSGAEVKKPGESLKISCKGSGYNFTSYWIGWVRQMPGKGLELMGIIYPGDSDTRYSPSFQGQVTISADKSISTAYLQWSSLKASDTAMYYCGSGSYFYFDLWGRGTLVTVSS VL: EIVLTQSPGTLSLSPGERATLSCRASQSVSSSYLAWYQQKPGQAPRLLIYGASSRATGIPDRFSGSGSGTDFTLTISRLEPEDFAVYYCQRSGGSSFTFGPGTKVDIKR", "IC50, A549 cell proliferation assay (ALAMARBLUE); sample stored 3 months at pH 5, 4° C.": 0.0037, "IC50, A549 cell proliferation assay (ALAMARBLUE); sample stored 3 months at pH 5, 37° C.": 0.0038}
{"binder": "full length human IgG1 antibody against human IFN-γ, purified isoform Peak +2 (antibody, V domains shown, N-glycan sites at amino acids 28 and 297 of SEQ ID NO:17 (VH and CH2); sialylation isoform Peak +2) VH: EVQLVQSGAEVKKPGESLKISCKGSGYNFTSYWIGWVRQMPGKGLELMGIIYPGDSDTRYSPSFQGQVTISADKSISTAYLQWSSLKASDTAMYYCGSGSYFYFDLWGRGTLVTVSS VL: EIVLTQSPGTLSLSPGERATLSCRASQSVSSSYLAWYQQKPGQAPRLLIYGASSRATGIPDRFSGSGSGTDFTLTISRLEPEDFAVYYCQRSGGSSFTFGPGTKVDIKR", "IC50, A549 cell proliferation assay (ALAMARBLUE); sample stored 3 months at pH 5, 4° C.": 0.002, "IC50, A549 cell proliferation assay (ALAMARBLUE); sample stored 3 months at pH 5, 37° C.": 0.0032}
{"binder": "full length human IgG1 antibody against human IFN-γ, purified isoform Peak +1 (antibody, V domains shown, N-glycan sites at amino acids 28 and 297 of SEQ ID NO:17 (VH and CH2); sialylation isoform Peak +1) VH: EVQLVQSGAEVKKPGESLKISCKGSGYNFTSYWIGWVRQMPGKGLELMGIIYPGDSDTRYSPSFQGQVTISADKSISTAYLQWSSLKASDTAMYYCGSGSYFYFDLWGRGTLVTVSS VL: EIVLTQSPGTLSLSPGERATLSCRASQSVSSSYLAWYQQKPGQAPRLLIYGASSRATGIPDRFSGSGSGTDFTLTISRLEPEDFAVYYCQRSGGSSFTFGPGTKVDIKR", "IC50, A549 cell proliferation assay (ALAMARBLUE); sample stored 3 months at pH 5, 4° C.": 0.0018, "IC50, A549 cell proliferation assay (ALAMARBLUE); sample stored 3 months at pH 5, 37° C.": 0.0028}
{"binder": "full length human IgG1 antibody against human IFN-γ, purified isoform Peak -1 (antibody, V domains shown, N-glycan sites at amino acids 28 and 297 of SEQ ID NO:17 (VH and CH2); sialylation isoform Peak -1) VH: EVQLVQSGAEVKKPGESLKISCKGSGYNFTSYWIGWVRQMPGKGLELMGIIYPGDSDTRYSPSFQGQVTISADKSISTAYLQWSSLKASDTAMYYCGSGSYFYFDLWGRGTLVTVSS VL: EIVLTQSPGTLSLSPGERATLSCRASQSVSSSYLAWYQQKPGQAPRLLIYGASSRATGIPDRFSGSGSGTDFTLTISRLEPEDFAVYYCQRSGGSSFTFGPGTKVDIKR", "IC50, A549 cell proliferation assay (ALAMARBLUE); sample stored 3 months at pH 5, 4° C.": 0.003, "IC50, A549 cell proliferation assay (ALAMARBLUE); sample stored 3 months at pH 5, 37° C.": 0.0033}
{"binder": "full length human IgG1 antibody against human IFN-γ, purified isoform Peak 0 (antibody, V domains shown, N-glycan sites at amino acids 28 and 297 of SEQ ID NO:17 (VH and CH2); sialylation isoform Peak 0) VH: EVQLVQSGAEVKKPGESLKISCKGSGYNFTSYWIGWVRQMPGKGLELMGIIYPGDSDTRYSPSFQGQVTISADKSISTAYLQWSSLKASDTAMYYCGSGSYFYFDLWGRGTLVTVSS VL: EIVLTQSPGTLSLSPGERATLSCRASQSVSSSYLAWYQQKPGQAPRLLIYGASSRATGIPDRFSGSGSGTDFTLTISRLEPEDFAVYYCQRSGGSSFTFGPGTKVDIKR", "IC50, A549 cell proliferation assay (ALAMARBLUE); sample stored 3 months at pH 5, 4° C.": 0.0024, "IC50, A549 cell proliferation assay (ALAMARBLUE); sample stored 3 months at pH 5, 37° C.": 0.0033}
